Reference: patent US20190119346A1 (Stanford University, published 2019)
Substitutions are numbered along the chain they refer to. Numbers in names are those of the source.

T1: human IL-2Rβ ectodomain (amino acids 1-214), C-terminal hexahistidine tag (human, UniProt P14784 27-240)
T1 construct: range 1-214; also called CD122; IL-2Rβ ECD
T1 sequence: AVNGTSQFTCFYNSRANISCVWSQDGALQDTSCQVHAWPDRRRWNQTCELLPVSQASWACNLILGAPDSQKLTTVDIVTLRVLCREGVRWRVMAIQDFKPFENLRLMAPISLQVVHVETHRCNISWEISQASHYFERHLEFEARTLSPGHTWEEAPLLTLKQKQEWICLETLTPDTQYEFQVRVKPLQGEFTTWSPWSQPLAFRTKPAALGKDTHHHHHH

T2: biotinylated IL-2Rβ ectodomain (C-terminal biotin acceptor peptide and hexahistidine tag) (human, UniProt P14784 27-240, C-terminally biotinylated (biotin acceptor peptide, BirA ligase))
T2 construct: range 1-214; Staining reagent for yeast; also called tetrameric IL-2Rβ; monomeric IL-2Rβ
T2 sequence: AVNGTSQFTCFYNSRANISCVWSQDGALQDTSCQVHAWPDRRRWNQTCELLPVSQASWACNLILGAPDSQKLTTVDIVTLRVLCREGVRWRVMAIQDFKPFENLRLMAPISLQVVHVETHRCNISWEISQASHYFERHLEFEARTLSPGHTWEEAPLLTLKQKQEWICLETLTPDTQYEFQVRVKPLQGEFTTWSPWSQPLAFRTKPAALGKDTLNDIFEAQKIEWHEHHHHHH

B1: H9-RET (H9 with L18R, Q22E and Q126T) (ligand)
chain: APTSSSTKKTQLQLEHLRLDLEMILNGINNYKNPKLTRMLTFKFYMPKKATELKHLQCLEEELKPLEEVLNLAQSKNFHFDPRDVVSNINVFVLELKGSETTFMCEYADETATIVEFLNRWITFCTSIISTLTHHHHHH
B2: IL-2 mutein B1 (ligand)
chain: B1 chain with R18L, E22Q, Q74N, I89V, T126Q
B3: IL-2 mutein E10 (ligand)
chain: B1 chain with R18L, E22Q, Q74S, T126Q
B4: IL-2 mutein D10 (ligand)
chain: B1 chain with R18L, E22Q, Q74H, T126Q
notes: also called IL-2 D10; super-2
B5: IL-2 mutein G8 (ligand)
chain: B1 chain with R18L, E22Q, Q74N, T126Q
B6: IL-2 mutein H9 (ligand)
chain: B1 chain with R18L, E22Q, T126Q
notes: also called super-IL-2; super-2
B7: IL-2 mutein H4 (ligand)
chain: B1 chain with R18L, E22Q, Q74S, F80L, D81T, V86I, T126Q
B8: IL-2 mutein C5 (ligand)
chain: B1 chain with R18L, E22Q, Q74N, F80V, D81T, T126Q
B9: yeast-displayed IL-2 clone G8 (ligand)
chain: APTSSSTKKTQLQLEHLLLDLQMILNGINNYKNPKLTRMLTFKFYMPKKATELKHLQCLEEELKPLEEVLNLANSKNFHFDPRDVVSNINVFVLELKGSETTFMCEYADETATIVEFLNRWITFCQSIISTLT
notes: Clone of the second generation yeast library; not shown: yeast display fusion partner and linker encoded by vector pCT302
B10: yeast-displayed IL-2 clone H4 (ligand)
chain: B9 chain with N74S, F80L, D81T, V86I
notes: as for B9
B11: yeast-displayed IL-2 clone C5 (ligand)
chain: B9 chain with F80V, D81T
notes: as for B9
B12: yeast-displayed IL-2 clone B1 (ligand)
chain: B9 chain with I89V
notes: as for B9
B13: yeast-displayed IL-2 clone H9 (ligand)
chain: B9 chain with N74Q
notes: as for B9
B14: yeast-displayed IL-2 clone E10 (ligand)
chain: B9 chain with N74S
notes: as for B9
B15: yeast-displayed IL-2 clone D10 (ligand)
chain: B9 chain with N74H
notes: as for B9

How the values were obtained:
[1] = biological target: CD25 (IL-2Rα) on CD25+ YT-1 cells (human) (UniProt P01589); test: cell-based or functional assay
Sequence of CD25 (IL-2Rα) on CD25+ YT-1 cells (human) (P01589 22-272): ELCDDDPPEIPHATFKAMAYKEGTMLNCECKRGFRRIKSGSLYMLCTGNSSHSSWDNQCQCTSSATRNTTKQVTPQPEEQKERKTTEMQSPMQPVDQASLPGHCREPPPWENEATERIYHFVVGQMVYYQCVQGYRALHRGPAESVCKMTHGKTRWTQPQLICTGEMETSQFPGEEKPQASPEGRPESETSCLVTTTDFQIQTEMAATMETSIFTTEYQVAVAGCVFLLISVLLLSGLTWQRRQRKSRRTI

[2] = biological target: T1, human IL-2Rβ ectodomain (amino acids …); test: SPR
Method: Dissociation was then tracked for 200 s. An irrelevant biotinylated protein was immobilized in the reference channel to subtract non-specific binding from the measurements. Experiments were carried out in HBS-P+ buffer (GE Healthcare) supplemented with 0.2% BSA at 25° C. All binding studies were performed at a flow rate of […] to minimize mass transport contributions and prevent rebinding of the analyte. For all measurements, data analysis and determination of equilibrium and kinetic parameters were implemented using the Biacore T100 evaluation software version 2.0 assuming a 1:1 Langmuir binding model.

[3] = biological target: T1, human IL-2Rβ ectodomain (amino acids …); test: SPR (Example 10), recombinant protein
[4] = biological target: T1, human IL-2Rβ ectodomain (amino acids …); test: surface plasmon resonance
[5] = biological target: T1, human IL-2Rβ ectodomain (amino acids …); test: SPR affinities of D10 and wild-type IL-2, told with the structure
[6] = biological target: T2, biotinylated IL-2Rβ ectodomain …; test: yeast clone screen: labeling with 5 nM IL-2Rβ and then SAV-PE
Method: Selection of second generation IL-2 library: The library was subjected to five rounds of selection against IL-2Rβ (FIG. 2B). This selection method was performed exactly as with the first generation library, only with modifications to the concentrations of IL-2Rβ used (round 1—1 μM, round 2—100 nM, round 3—30 nM, round 4—30 nM, round 5—10 nM, all monomeric IL-2Rβ). Upon conclusion of selections, round four and round five yeast cultures were spread on SD-CAA plates, which yielded individual yeast colonies. 48 individual yeast clones from both rounds were grown in 96-well block format and screened by labeling with 5 nM IL-2Rβ and then SAV-PE.

Molecule | Kd [3] | koff [4] | binding result [6] | further results
IL-2 F42A (from UniProt P60568 21-153) (ligand) |  |  |  | STAT5 phosphorylation dose response on CD25+ YT-1 cells [1]: 1 log
B1 |  |  |  | binding result [2]: binds
B2 | 1.6 nM | 0.005 s⁻¹ |  | 
B3 | 1.3 nM | 0.0055 s⁻¹ |  | 
B4 | 1.2 nM | 0.0051 s⁻¹ |  | fold affinity gain [5]: ~300 fold; Kd [4]: 1.3 nM; kon [4]: 4.1e+06 M⁻¹ s⁻¹
B5 | 1.5 nM | 0.0049 s⁻¹ |  | 
B6 | 1.3 nM | 0.0056 s⁻¹ |  | Kd [4]: 1.4 nM; kon [4]: 4.1e+06 M⁻¹ s⁻¹
B7 | 14 nM | 0.013 s⁻¹ |  | 
B8 | 10 nM | 0.016 s⁻¹ |  | 
B9 |  |  | binds | 
B10 |  |  | binds | 
B11 |  |  | binds | 
B12 |  |  | binds | 
B13 |  |  | binds | 
B14 |  |  | binds | 
B15 |  |  | binds | 
